Laboratory results taken from the Immune Epitope Database (IEDB).
pKd: −log10 of the molar value.

How the values were obtained:
Assay in all cases: IEDB peptide-MHC binding, purified MHC/competitive/radioactivity; filed as Kd, often an IC50 or EC50 that approximates it; ≥ and ≤ were set here for values at or beyond the usual limits of such assays
Settings in all cases: source organism: Lake Victoria marburgvirus - Angola2005
HLA-B*07:02 = biological target: HLA-B*07:02
HLA-B*08:01 = biological target: HLA-B*08:01
HLA-A*26:01 = biological target: HLA-A*26:01
HLA-A*68:02 = biological target: HLA-A*68:02
HLA-B*40:01 = biological target: HLA-B*40:01
HLA-B*44:02 = biological target: HLA-B*44:02
HLA-A*02:03 = biological target: HLA-A*02:03
HLA-A*02:06 = biological target: HLA-A*02:06
HLA-A*24:02 = biological target: HLA-A*24:02
HLA-A*30:02 = biological target: HLA-A*30:02
HLA-A*32:01 = biological target: HLA-A*32:01
HLA-B*15:01 = biological target: HLA-B*15:01
HLA-A*23:01 = biological target: HLA-A*23:01
HLA-A*30:01 = biological target: HLA-A*30:01
HLA-A*68:01 = biological target: HLA-A*68:01

Sequence APFARVLNL has a pKd (HLA-B*07:02) of 9.68 and a pKd (HLA-B*08:01) of 7.17.

In the case of EVASFKQAL, the pKd (HLA-A*26:01) was 7.07, the pKd (HLA-A*68:02) was 8.57 and the pKd (HLA-B*07:02) was 6.60.

GEYAPFARV gave a pKd (HLA-B*40:01) of 6.97 and a pKd (HLA-B*44:02) of 6.67.

GLYPQLSAI was tested, and the pKd (HLA-A*02:03) was 8.85 and the pKd (HLA-A*02:06) was 8.16.

Sequence HYSPLILAL has a pKd (HLA-A*24:02) of 7.19.

Work on KVKNEVASF yielded a pKd (HLA-A*30:02) of 6.80, a pKd (HLA-A*32:01) of 8.54 and a pKd (HLA-B*15:01) of 8.25.

Sequence LIVKTVLEF has a pKd (HLA-A*23:01) of 6.96 and a pKd (HLA-B*15:01) of 9.10.

TVLEFILQK gave a pKd (HLA-A*30:01) of 6.44 and a pKd (HLA-A*68:01) of 8.66.
